Measurements taken from US20100256070A1.

Biological target: Diphtheria toxin anti-CD5 ScFv fusion protein bearing a granzyme B cleavage sequence

B1: mouse granzyme B (protein)
chain: IIGGHEVKPHSRPYMALLSIKDQQPEAICGGFLIREDFVLTAAHCEGSIINVTLGAHNIKEQEKTQQVIPMVKCIPHPDYNPKTFSNDIMLLKLKSKAKRTRAVRPLNLPRRNVNVKPGDVCYVAGWGRMAPMGKYSNTLQEVELTVQKDRECESYFKNRYNKTNQICAGDPKTKRASFRGDSGGPLVCKKVAAGIVSYGYKDGSPPRAFTKVSSFLSWIKKTMKSS
- in vitro cleavage by granzyme B (gel): only a small fraction of DT and PEA fusion proteins was cleaved
